Laboratory results published in patent US20260242735A1 (UNIVERSIT T BASEL, published 2026).

Legend:
Assay in all cases: alanine scan, flow cytometry, HEK293-T;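 further: antibody binding to each alanine-substituted CD33 mutant expressed transiently in HEK293-T, read as fluorescence minus background, mean of duplicates, relative to wild-type CD33 set as 100%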
human CD33 K250A = human CD33 K250A (human, UniProt P20138 18-364)
human CD33 A265S = human CD33 A265S (human, UniProt P20138 18-364)
human CD33 L270A = human CD33 L270A (human, UniProt P20138 18-364)
Chain of human CD33 L270A (P20138 18-364 L270A limits assumed): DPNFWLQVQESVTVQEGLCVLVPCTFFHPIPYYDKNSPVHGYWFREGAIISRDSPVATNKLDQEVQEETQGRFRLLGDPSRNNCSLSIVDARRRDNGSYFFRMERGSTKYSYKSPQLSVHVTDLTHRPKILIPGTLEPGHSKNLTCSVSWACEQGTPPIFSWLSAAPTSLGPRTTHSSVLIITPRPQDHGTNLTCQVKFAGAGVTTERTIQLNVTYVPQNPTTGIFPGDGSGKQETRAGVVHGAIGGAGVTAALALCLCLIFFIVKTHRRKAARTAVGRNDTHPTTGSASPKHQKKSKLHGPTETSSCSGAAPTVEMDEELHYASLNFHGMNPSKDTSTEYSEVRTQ

human CD33 A272S = human CD33 A272S (human, UniProt P20138 18-364)
Chain of human CD33 A272S (P20138 18-364 A272S limits assumed): as the sequence (P20138 18-364 L270A limits assumed) above, with A253L, A255S counted along it

human CD33 L273A = human CD33 L273A (human, UniProt P20138 18-364)
Chain of human CD33 L273A (P20138 18-364 L273A limits assumed): as the sequence (P20138 18-364 L270A limits assumed) above, with A253L, L256A counted along it

human CD33 F280A = human CD33 F280A (human, UniProt P20138 18-364)
Chain of human CD33 F280A (P20138 18-364 F280A limits assumed): as the sequence (P20138 18-364 L270A limits assumed) above, with A253L, F263A counted along it

human CD33 I281A = human CD33 I281A (human, UniProt P20138 18-364)
Chain of human CD33 I281A (P20138 18-364 I281A limits assumed): as the sequence (P20138 18-364 L270A limits assumed) above, with A253L, I264A counted along it

human CD33 V282A = human CD33 V282A (human, UniProt P20138 18-364)
Chain of human CD33 V282A (P20138 18-364 V282A limits assumed): as the sequence (P20138 18-364 L270A limits assumed) above, with A253L, V265A counted along it

human CD33 H285A = human CD33 H285A (human, UniProt P20138 18-364)
Chain of human CD33 H285A (P20138 18-364 H285A limits assumed): as the sequence (P20138 18-364 L270A limits assumed) above, with A253L, H268A counted along it

human CD33 R286A = human CD33 R286A (human, UniProt P20138 18-364)
Chain of human CD33 R286A (P20138 18-364 R286A limits assumed): as the sequence (P20138 18-364 L270A limits assumed) above, with A253L, R269A counted along it

human CD33 R291A = human CD33 R291A (human, UniProt P20138 18-364)
Chain of human CD33 R291A (P20138 18-364 R291A limits assumed): as the sequence (P20138 18-364 L270A limits assumed) above, with A253L, R274A counted along it

human CD33 G295A = human CD33 G295A (human, UniProt P20138 18-364)
Chain of human CD33 G295A (P20138 18-364 G295A limits assumed): as the sequence (P20138 18-364 L270A limits assumed) above, with A253L, G278A counted along it

human CD33 D298A = human CD33 D298A (human, UniProt P20138 18-364)
Chain of human CD33 D298A (P20138 18-364 D298A limits assumed): as the sequence (P20138 18-364 L270A limits assumed) above, with A253L, D281A counted along it

human CD33 H300A = human CD33 H300A (human, UniProt P20138 18-364)
Chain of human CD33 H300A (P20138 18-364 H300A limits assumed): as the sequence (P20138 18-364 L270A limits assumed) above, with A253L, H283A counted along it

human CD33 S307A = human CD33 S307A (human, UniProt P20138 18-364)
Chain of human CD33 S307A (P20138 18-364 S307A limits assumed): as the sequence (P20138 18-364 L270A limits assumed) above, with A253L, S290A counted along it

human CD33 P308A = human CD33 P308A (human, UniProt P20138 18-364)
Chain of human CD33 P308A (P20138 18-364 P308A limits assumed): as the sequence (P20138 18-364 L270A limits assumed) above, with A253L, P291A counted along it

human CD33 Q311A = human CD33 Q311A (human, UniProt P20138 18-364)
Chain of human CD33 Q311A (P20138 18-364 Q311A limits assumed): as the sequence (P20138 18-364 L270A limits assumed) above, with A253L, Q294A counted along it

human CD33 K312A = human CD33 K312A (human, UniProt P20138 18-364)
Chain of human CD33 K312A (P20138 18-364 K312A limits assumed): as the sequence (P20138 18-364 L270A limits assumed) above, with A253L, K295A counted along it

human CD33 K315A = human CD33 K315A (human, UniProt P20138 18-364)
Chain of human CD33 K315A (P20138 18-364 K315A limits assumed): as the sequence (P20138 18-364 L270A limits assumed) above, with A253L, K298A counted along it

human CD33 L316A = human CD33 L316A (human, UniProt P20138 18-364)
Chain of human CD33 L316A (P20138 18-364 L316A limits assumed): as the sequence (P20138 18-364 L270A limits assumed) above, with A253L, L299A counted along it

human CD33 G247A = human CD33 G247A (human, UniProt P20138 18-364)
Chain of human CD33 G247A (P20138 18-364 G247A limits assumed): as the sequence (P20138 18-364 L270A limits assumed) above, with G230A, A253L counted along it

Chain of human CD33 K250A (P20138 18-364 K250A limits assumed): as the sequence (P20138 18-364 L270A limits assumed) above, with K233A, A253L counted along it
Chain of human CD33 A265S (P20138 18-364 A265S limits assumed): as the sequence (P20138 18-364 L270A limits assumed) above, with A248S, A253L counted along it

Mean % WT Binding (human CD33 K250A)	Mean % WT Binding (human CD33 A265S)	Mean % WT Binding (human CD33 L270A)	Mean % WT Binding (human CD33 A272S)	Mean % WT Binding (human CD33 L273A)	Mean % WT Binding (human CD33 F280A)	Mean % WT Binding (human CD33 I281A)	Mean % WT Binding (human CD33 V282A)	Mean % WT Binding (human CD33 H285A)	Mean % WT Binding (human CD33 R286A)	Mean % WT Binding (human CD33 R291A)	Mean % WT Binding (human CD33 G295A)	Mean % WT Binding (human CD33 D298A)	Mean % WT Binding (human CD33 H300A)	Mean % WT Binding (human CD33 S307A)	Mean % WT Binding (human CD33 P308A)	Mean % WT Binding (human CD33 Q311A)	Mean % WT Binding (human CD33 K312A)	Mean % WT Binding (human CD33 K315A)	Mean % WT Binding (human CD33 L316A)	Binder	further results
106 % WT binding	126 % WT binding	97.3 % WT binding	107 % WT binding	115 % WT binding	92.3 % WT binding	122 % WT binding	111 % WT binding	95.2 % WT binding	101 % WT binding	102 % WT binding	107 % WT binding	83.9 % WT binding	95.2 % WT binding	114 % WT binding	99.8 % WT binding	102 % WT binding	98.9 % WT binding	48.4 % WT binding	80 % WT binding	Refmab #4 (antibody, V domains shown, The alanine scan used IgG or Fab) VH: QVQLVQSGAEVKKPGESVKVSCKASGYTFTNYGMNWVKQAPGQGLEWMGWINTYTGEPTYADKFQGRVTMTTDTSTSTAYMEIRNLGGDDTAVYYCARWSWSDGYYVYFDYWGQGTSVTVSS VL: DIVMTQSPDSLTVSLGERTTINCKSSQSVLDSSTNKNSLAWYQQKPGQPPKLLLSWASTRESGIPDRFSGSGSGTDFTLTIDSPQPEDSATYYCQQSAHFPITFGQGTRLEIK	Mean % WT Binding (human CD33 G247A): 113 % WT binding
146 % WT binding	92.4 % WT binding	125 % WT binding	105 % WT binding	125 % WT binding	99 % WT binding	91 % WT binding	73.2 % WT binding	94.3 % WT binding	92.4 % WT binding	97.5 % WT binding	95.8 % WT binding	80.1 % WT binding	68.3 % WT binding	60.1 % WT binding	82.8 % WT binding	124 % WT binding	99.6 % WT binding	136 % WT binding	90.4 % WT binding	Refmab #3 (antibody, V domains shown, The alanine scan used IgG or Fab) VH: QVQLVQSGAEVKKPGSSVKVSCKASGYTFTDYNMHWVRQAPGQGLEWIGYIYPYNGGTGYNQKFKSKATITADESTNTAYMELSSLRSEDTAVYYCARGRPAMDYWGQGTLVTVSS VL: DIQMTQSPSSLSASVGDRVTITCRASESVDNYGISFMNWFQQKPGKAPKLLIYAASNQGSGVPSRFSGSGSGTDFTLTISSLQPDDFATYYCQQSKEVPWTFGQGTKVEIK	Mean % WT Binding (human CD33 G247A): 106 % WT binding
